Among the data in US20250277032A1 are average fluorescence and decrease in IL-8 secretion from THP-1 cells activated with immobilized Rituximab values, retold here.

Experiment [1] addresses human ILT3 on the cell surface (recombinant human ILT3 exogenously overexpressed on HEK cells; ILT3 on THP-1 cells, DCs, macrophages) (human) (UniProt Q8NHJ6). Put plainly: flow cytometry on HEK cells overexpressing recombinant human ILT3.
Experiment [2] has the same target. The experiment can be described thus: cell-based or functional assay.

Chain of fibronectin (FN1), P02751 32-2477 (ligand) (P02751 32-2477 limits assumed): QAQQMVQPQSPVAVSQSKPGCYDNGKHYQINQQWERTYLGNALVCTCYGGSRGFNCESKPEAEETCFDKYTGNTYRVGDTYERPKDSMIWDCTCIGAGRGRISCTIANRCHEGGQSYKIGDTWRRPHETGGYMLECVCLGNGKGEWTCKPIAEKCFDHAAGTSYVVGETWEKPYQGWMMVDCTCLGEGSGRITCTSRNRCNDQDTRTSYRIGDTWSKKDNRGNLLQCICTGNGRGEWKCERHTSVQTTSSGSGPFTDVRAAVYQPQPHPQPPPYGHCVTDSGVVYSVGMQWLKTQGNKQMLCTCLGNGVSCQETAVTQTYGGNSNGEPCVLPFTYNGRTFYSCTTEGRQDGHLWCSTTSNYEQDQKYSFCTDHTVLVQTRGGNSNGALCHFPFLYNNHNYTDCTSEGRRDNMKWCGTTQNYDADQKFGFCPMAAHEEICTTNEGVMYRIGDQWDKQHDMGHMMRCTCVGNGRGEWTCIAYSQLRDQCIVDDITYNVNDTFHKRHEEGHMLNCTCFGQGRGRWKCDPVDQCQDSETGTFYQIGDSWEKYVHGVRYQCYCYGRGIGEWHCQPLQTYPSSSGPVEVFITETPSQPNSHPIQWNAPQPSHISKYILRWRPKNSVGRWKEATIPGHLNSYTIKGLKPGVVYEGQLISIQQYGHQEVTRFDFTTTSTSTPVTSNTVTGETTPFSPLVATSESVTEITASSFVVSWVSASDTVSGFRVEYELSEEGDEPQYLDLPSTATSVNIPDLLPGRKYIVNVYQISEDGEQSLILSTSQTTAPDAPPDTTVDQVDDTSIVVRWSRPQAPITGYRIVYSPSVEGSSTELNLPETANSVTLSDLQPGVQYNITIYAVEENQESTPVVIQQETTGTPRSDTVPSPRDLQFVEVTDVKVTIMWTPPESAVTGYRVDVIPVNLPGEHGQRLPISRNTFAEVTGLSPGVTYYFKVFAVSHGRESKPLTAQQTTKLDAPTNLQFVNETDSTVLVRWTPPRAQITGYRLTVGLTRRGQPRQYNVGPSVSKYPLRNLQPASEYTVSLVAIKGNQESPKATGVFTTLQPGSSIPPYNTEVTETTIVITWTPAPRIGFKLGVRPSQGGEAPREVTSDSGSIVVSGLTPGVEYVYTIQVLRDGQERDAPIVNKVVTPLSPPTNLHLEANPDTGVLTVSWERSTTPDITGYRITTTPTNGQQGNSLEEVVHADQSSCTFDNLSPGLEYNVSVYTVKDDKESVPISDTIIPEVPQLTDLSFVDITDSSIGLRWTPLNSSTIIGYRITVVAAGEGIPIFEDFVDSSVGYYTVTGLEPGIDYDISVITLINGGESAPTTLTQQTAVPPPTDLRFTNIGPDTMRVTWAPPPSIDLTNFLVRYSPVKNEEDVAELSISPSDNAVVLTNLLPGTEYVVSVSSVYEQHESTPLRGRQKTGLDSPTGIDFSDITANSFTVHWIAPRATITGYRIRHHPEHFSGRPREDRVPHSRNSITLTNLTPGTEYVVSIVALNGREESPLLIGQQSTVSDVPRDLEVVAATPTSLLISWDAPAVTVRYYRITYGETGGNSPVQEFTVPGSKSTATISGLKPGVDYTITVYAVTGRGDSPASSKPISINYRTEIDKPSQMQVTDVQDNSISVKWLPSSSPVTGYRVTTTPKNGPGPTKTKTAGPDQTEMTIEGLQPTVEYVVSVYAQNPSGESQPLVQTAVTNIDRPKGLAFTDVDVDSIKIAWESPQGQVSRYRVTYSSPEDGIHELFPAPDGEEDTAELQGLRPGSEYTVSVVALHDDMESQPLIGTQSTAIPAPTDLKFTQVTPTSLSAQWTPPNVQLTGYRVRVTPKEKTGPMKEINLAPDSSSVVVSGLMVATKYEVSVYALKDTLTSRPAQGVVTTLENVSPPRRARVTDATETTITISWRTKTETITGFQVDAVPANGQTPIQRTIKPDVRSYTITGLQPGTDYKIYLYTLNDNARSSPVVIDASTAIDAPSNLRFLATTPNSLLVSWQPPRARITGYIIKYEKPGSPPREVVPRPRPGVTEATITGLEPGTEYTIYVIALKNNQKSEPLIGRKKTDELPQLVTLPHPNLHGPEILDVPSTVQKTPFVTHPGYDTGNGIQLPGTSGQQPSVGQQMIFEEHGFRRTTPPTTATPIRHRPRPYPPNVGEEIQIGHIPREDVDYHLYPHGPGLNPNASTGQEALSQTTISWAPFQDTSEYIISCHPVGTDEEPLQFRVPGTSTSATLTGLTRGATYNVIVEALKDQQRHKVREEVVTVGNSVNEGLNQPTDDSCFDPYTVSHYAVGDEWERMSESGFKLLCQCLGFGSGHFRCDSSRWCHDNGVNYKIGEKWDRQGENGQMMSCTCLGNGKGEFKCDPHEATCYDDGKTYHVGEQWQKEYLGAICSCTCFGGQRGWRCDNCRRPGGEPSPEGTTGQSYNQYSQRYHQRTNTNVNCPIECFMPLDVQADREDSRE

ZM4.1 (commercial anti-ILT3 antibody): in experiment [1], the average fluorescence amounted to 118.

Consider “fibronectin (FN1), P02751 32-2477 (ligand)”, for which, in experiment [2], the decrease in IL-8 secretion from THP-1 cells activated with immobilized Rituximab is 67%.
